Assay: label from the status in PepcDB records

Sequence	protein production
MNIKIVFYVLGGLLRLLGLLMIVPLGVAYYYGESLTPFLVSIVITVLTGLILLSYKTDEDWMRKEGFAIVALGWLAVAVFGAIPFMLDGISPLNSLFEAMSAFTTTGSTILTDIESHPKGILFWRSMMQWLGGMGIIVLFIAVLPKFGVAGRQLFRAEAPGPTEDKLKPRIRETAKILWMVYFVISFAEVVALLLAGLSLYDAITHTFTTMACGGFSPYGTSIEAFRSPLVEYIITFFMFVSGANFALHYRAIYVDKDFLLKDDEFRFYTALTLAATGLLTLLLYRDINTGFFDSFRLAIFQVVSIMTTTGFATADFNFWSDSAKMVLLLIMFVGGCAGSTGGGIKVVRILMLLRHGRVELFKSLHPRAIRGVKFNNKNVPDEVINSIFSFVVIYLFIFMSSALILAVLGMDIITSTTASIATLGNIGPGLNVVGPMGTFDPIPPLGKLILIANMWIGRLEVYTVIVLFTPEFWNK	failed
MNIKLYYVHDPMCSWCWGYKPTIEKLKQQLPGVIQFEYVVGGLAPDTNLPMPPEMQQKLEGIWKQIETQLGTKFNYDFWKLCTPVRSTYQSCRAVIAAGFQDSYEQMLEAIQHAYYLRAMPPHEEATHLQLAKEIGLNVQQFKNDMDGTLLEGVFQDQLSLAKSLGVNSYPSLVLQINDAYFPIEVDYLSTEPTLKLIRERIIENMSA	not failed
MNIMLFHSTYGLRPAVRAAADRLRAAGHEVWTPDLLEGRTFETVEEGMAFCDGIGKDELLKRAVLAAAPYSERGLVYAGFSLGASIAQTLALGDEKARGLLLLHGTSDIAESASVDELPVQLHVAEPDAFETDDWLGAWYLQLRRAGADVEVYRYAGAGHLYTDPDLPDYDAEAAEATWKVALGFLDSL	not failed
MNINENASQYIPHEAPMVFVDDLIEIFDQGALASLTIRPELLFCTAQGLPSWTSIELMAQTISAYSGRNGRQRGHTPRIGFLLGTRKLNLPVAFFELGSTLIIRIEQQYLHEGLGQFACEIEYQAHKISALLSVYEPTVDQDNKENT	failed
MNIPTTTTKGEQAKSQLIAAALAQFGEYGLHATTRDIAALAGQNIAAITYYFGSKEDLYLACAQWIADFLGEKFRPHAEKAERLFSQPAPDRDAIRELILLACKNMIMLLTQEDTVNLSKFISREQLSPTSAYQLVHEQVIDPLHTHLTRLVAAYTGCDANDTRMILHTHALLGEVLAFRLGKETILLRTGWPQFDEEKAELIYQTVTCHIDLILHGLTQRSLD	not failed
MNIQAIDTRHGTANQHSFSNGNCLPYTGVPFGMNFYAPQTTDQKGSWWFHPEDRTFQGYRVTHQPSPWMGDFSHLLMTPVSGSLSELSLFHAQSSYRPEESLFSPVEINLTQLRYQITSQLIPSMYGGILTIDYQQKDNHLLLTLPGRYQVKQLDDHQVAVKVINYSGCEDPDFSFYFVLHFEQPLTKWFAPSSGLEHHHHHH	failed
MNIQLSPLEARVIGCLIEKEVTTPDHYPLTLNSLTTACNQKSNREPVLNLSEAEVQDTVEGLIARRLVSDESSFNSRTSKYQHRFCNTEFGDLKLNQQELGLICCLLLRGAQTPGELRTRTNRLCTFTDVKETEAVLERLANRDSGALVVKLPREPGKRESRYHHLFCGEVDMAA	not failed
MNISKEKVVDAISMVGYFVFAYVVMELLSINKYDWMMESGDSICSIPHQPLSNRILQAGVAALLLITPLFIALARNIFIKNRYKIAYYIVGILCIALYGGWLFLGRFALC	failed
MNISSAQFIPGVHTVEEIEAEIHKNLHISKSCSYQKVPNSHKEFTKFCYEVYNEIKISDKEFKEKRAALDTLRLCLKRISPDAELVAFGSLESGLALKNSDMDLCVLMDSRVQSDTIALQFYEELIAEGFEGKFLQRARIPIIKLTSDTKNGFGASFQCDIGFNNRLAIHNTLLLSSYTKLDARLKPMVLLVKHWAKRKQINSPYFGTLSSYGYVLMVLYYLIHVIKPPVFPNLLLSPLKQEKIVDGFDVGFDDKLEDIPPSQNYSSLGSLLHGFFRFYAYKFEPREKVVTFRRPDGYLTKQEKGWTSATEHTGSADQIIKDRYILAIEDPFEISHNVGRTVSSSGLYRIRGEFMAASRLLNSRSYPIPYDSLFEEAPIPPRRQKKTDEQSNKKLLNETDGDNS	not failed
MNIVIVVFSTDEETLRKFKDIIKKNGFKVRTVRSPQELKDSIEELVKKYNATIVVVVVDDKEWAEKAIRFVKSLGAQVLIIIYDQDQNRLEEFSREVRRRGFEVRTVTSPDDFKKSLERLIREVGSLEHHHHHH	not failed
MNKALIVILSTVALDAIGAGLIFPILPDILVEVTGGGDIGFLYGVMLGVFAVMQFVFSPILGALSDRFGRRPVLLLSLAGTLLDYLVMAFSPLGWVLVVGRAMAGITSANMAVASAYITDITPAEQRAQRFGTVGAVMSLGFIIGPVIGGVIGAWWLRAPFLVAALFNGLNLFVALFVLPESRKAGPGKFAFKELNPLAPLVWLWNFKPLLPLVTVSVVFGLVAAIPGTIWVLYGAERFGWDSVHMGLSLSVFGVSGALAQAFLVGPLSRRFGDLGTLMIGVGFDMLAYMLMAFANQSWMGYAVAPLFALGGVAMPALQSLVTSRVSDDQQGQLQGVLASLMSLAGIIGPVLTTAVFFSTKSIWIGTIWLVGAALYLLALPLFATVKTPKAVAA	failed
MNKFFLESERLIIRPLEESDYDSWYTSFMNRGPSLTPFDDGILDMSMCDINWFKNLVNLQRKEWESDIVYIFGVFLKSGEHVGMLNIVTLARADMQWGELGYVFHNQFWSNGYAFESILALLNSTYEKLGFHHIEAQITPGNERSEKLVRRLGLTYETTRKDFSFENGKWTDKLIYSINLHNNNLE	failed
MNKGFILKALFLLCFLFSQTAQGQSFTPGEIWPDNHQVHINAHGGGILYENGTYYWFGEHKTEGEAGNLANVGVHCYSSDDLYHWKDCGIALSVIENDPGHPISKGCILERPKVIYNPLTKKYVMWFHLEPKGAGYSGALSGIALSDRVTGPYTFLKAVRPNAGSWPINVLPIHKTTRRPSAEEERQCTGGSLPAHPDSLNILGRDMEQGQMARDMNLFVDDDGKAYHIYSSEENSTLHIAELDPTYTGYTGKYIRVFINRFMEAPAMFKKDGNYYLIMSGCSGWNPNAARSAIASSIWGEWKELGNPCIGQDADLTFHSQSTYILPVQGKKNQFIYMGDRWTPQNAIDGRYIWLPIHFEGPKPIIEWKDSWTLD	failed
MNKKNVELLVAIGEVYLKAGKLPEAQEYAALAKKVNGKSALASVLEGDIAFEQKNAGLASQKYEEAIYFDPSCTEAYLRYADIYKSANAALAIEKLEQLKAQEPSNTAVDKKLAEIYYLKNDFSKAAEAYSRFAMGPTATEEDLVKYAFALFLNHDFEKSLEVANMGLKKNARHAAFNRLAMYNYTDLKRFDEAIKAADAFFTESDKADYSYLDYMYYGHLLEALKKYDEAVGQYEKAIQLDPTKTDLYKNISSAYEQKNDYKKAISAYQKYYTSLDKEHQTPDLEHHHHHH	failed
MNKMIILLVIAIIFLHMCLIWLWYRYTNNPSVVDVGWASGLTLAGLIYLNNQEFSLRSLLLVLALLTWGIRLGGYLWWTRIRLKKIDKRYLALSNDWKLAKPLGFFLNFQLQGVLICLVSIPWYFSSSETQTALNLLDGLALIIFLTALILETVADNQLQDFKKNYPGKVCNQKLWRYCRHPNYFYEWLVWCSFTLFALSAPYGWIAIISPLTLYLIMTKITAPMTEQGSIESRGNLYIEYQKVTPMFFPKWLKNNSTPRK	failed
MNKNLSEKMKIAFDIKLKNFGNKIEFAYPNQTLALSTTSNQCSLKCAHCNGHYLNNMVPIEEYEEKVQSRNITSFLLSGGCSYEGDVPINTHINTIKNLKEQGYRLNAHLGLMDKDSIVELCKYLDIVSFDLVFDDETIREVYKMKKSKEDYIEVYNTIQEHTEVAPHICIGLKGGQIKGEYEIIEYLQKNPPNKLTFIVLIPTKGTEYENVEPPELEGVADILCEARINLPDTEINLGCMRPRGVYRKELDQLSIMCGVNRIVLPSRSAKNKAIEMNMTINECKECCVL	failed
MNKQSAAVLMVMGSALSLQFGAAIGTQLFPLNGPWAVTSLRLFIAGLIMCLVIRPRLRSWTKKQWIAVLLLGLSLGGMNSLFYASIELIPLGTAVTIEFLGPLIFSAVLARTLKNGLCVALAFLGMALLGIDSLSGETLDPLGVIFAAVAGIFWVCYILASKKIGQLIPGTSGLAVALIIGAVAVFPLGATHMGPIFQTPTLLILALGTALLGSLIPYSLELSALRRLPAPIFSILLSLEPAFAAAVGWILLDQTPTALKWAAIILVIAASIGVTWEPKKMLVDAPLHSKCNAKRRVHTPS	failed
MNKRNTQQRRHSIISILNEQGEVSVDELSLRFETSEVTIRKDLAELEKTGLLLRRYGGAVAIPDEVTQQFSAKIAPNKLSIAKAAAQLIKDHNRIIIDSGTTTSGLIAELNQKRGLVVMTNALHLANAIHELENEPTLLMTGGTWDPHSESFQGQVAEQVLRSYNFDQLFIGADGIDLARGTTTFNELTGLSKVMAEVSREVIVMVDSDKIGKRIPNLELPWSKISVLVTDARIEESALKQITEQGVKVILAPYSP	failed
MNKRVQAFLAKMQEKELDGIIINNLKNVYYLTGFWGSNGTVFISRDRQVLVTDSRYIIAAKQETSGFEIVADRDELAVIAGIVKDMGLTRIGFEDEISVSYYHRMQAAFAGLNLLPQTQFVEGLRMIK	failed
MNKTELIKNVAQNAEISQKEATVVVQTVVESITNTLAAGEKVQLIGFGTFEVRERAARTGRNPQTGEEMQIAASKVPAFKAGKELKEAVK	not failed
MNKWAILSLACVPYALLTIVNEDTLEIGGSANIFWKIGLFAPLIGVLFSAGASKTYQRVMLALFNLSYYFVLYIYMIYTF	failed
MNLAQSNREIVELLVPIIVGYMSLFISSIFVYRIGKIILRRDSISLISAIIFLLNPSTIFCLLYSPKNYGFASVGYYFVPLLYLMSYYYYLKKDWKKFTAFTVALTLTSPLSYLIAITFIVYLLIRNRIDEKSLSWSLLRENKISLVLILVSLIIGVLVIPQTLQHFSSLLIASIYPQYTSLNYIYDNVYFKLTYWFILFGVFSFLPIFSPLELIPALPYLLVGLFSSYIPYYSYGYYPYYFLALPMLIMGFIRTINLIKDDKRTMLISYVFIFLFNVALLYVILE	failed
MNLASQSGEAGAGQLLFANFNQDNTEVKGASRAAGLGRRAVVWSLAVGSKSGYKFFSLSSVDKLEQIYECTDTEDVCIVERLFSSSLVAIVSLKAPRKLKVCHFKKGTEICNYSYSNTILAVKLNRQRLIVCLEESLYIHNIRDMKVLHTIRETPPNPAGLCALSINNDNCYLAYPGSATIGEVQVFDTINLRAANMIPAHDSPLAALAFDASGTKLATASEKGTVIRVFSIPEGQKLFEFRRGVKRCVSICSLAFSMDGMFLSASSNTETVHIFKLETVKEKPPEEPTTWTGYFGKVLMASTSYLPSQVTEMFNQGRAFATVRLPFCGHKNICSLATIQKIPRLLVGAADGYLYMYNLDPQEGGECALMKQHRLDGSLETTNEILDSASHDCPLVTQTYGAAAGKGTYVPSSPTRLAYTDDLGAVGGACLEDEASALRLDEDSEHPPMILRTD	failed
MNLDTPLADGLERAKRFEQGLQQVVLGQERPIRLLTLAVFARGHALLEGGVGVGKTTLLRAVARGIGGDYERIEGTIDLMPNDLVYYTYLDEQGRPGVAPGPLLKHGEQLSIFFFNEINRARPQVHSLLLRVMAERSVSAFNREYRFPYLQVFADRNRVEKEETFELPAAARDRFMLEIAIEPPADPAHIDQILFDPRFYDPDRLVASAPADTLSFRELNGIAEALQGGIHVSARLRSYVQDLWRATRRPEDFGIALHEADSGDMIEAGSSPRGMSYLVRLARVQAWLSGRDRVEPEDVQYVFAPAVGHRIFLKPVYEYRRAELIPELVGKLIRRIAAPLEHHHHHH	failed

Source: a protein production outcome set (Wang et al. 2014)
